According to patent publication US20260226503A1 (NORTH CAROLINA STATE UNIVERSITY, published 2026):
Where no end group is shown, it is not given here. Toyopearl AF‑Amino‑650M resin = chromatographic resin to which the peptide C-terminus is conjugated

B1: IWWHIAKFG-Toyopearl resin (peptide)
peptide: IWWHIAKFG-{Toyopearl AF‑Amino‑650M resin}
notes: Peptide immobilised on chromatographic resin; also called W3
B2: FNHFFIG-Toyopearl resin (peptide)
peptide: FNHFFIG-{Toyopearl AF‑Amino‑650M resin}
notes: Peptide immobilised on chromatographic resin; also called W11
B3: IKIFFFFSG-Toyopearl resin (peptide)
peptide: IKIFFFFSG-{Toyopearl AF‑Amino‑650M resin}
notes: Peptide immobilised on chromatographic resin; also called W7
B4: IAFKKISIG-Toyopearl resin (peptide)
peptide: IAFKKISIG-{Toyopearl AF‑Amino‑650M resin}
notes: Peptide immobilised on chromatographic resin; also called W6
B5: FFNFFKG-Toyopearl resin (peptide)
peptide: FFNFFKG-{Toyopearl AF‑Amino‑650M resin}
notes: Peptide immobilised on chromatographic resin; also called W10; FFNFFK-Toyopearl
B6: FWWAAFFKG-Toyopearl resin (peptide)
peptide: FWWAAFFKG-{Toyopearl AF‑Amino‑650M resin}
notes: Peptide immobilised on chromatographic resin; also called W5
B7: FWNWHHFKG-Toyopearl resin (peptide)
peptide: FWNWHHFKG-{Toyopearl AF‑Amino‑650M resin}
notes: Peptide immobilised on chromatographic resin; also called W4
B8: WKAHNKG-Toyopearl resin (peptide)
peptide: WKAHNKG-{Toyopearl AF‑Amino‑650M resin}
notes: Peptide immobilised on chromatographic resin; also called W2
B9: WWIKISG-Toyopearl resin (peptide)
peptide: WWIKISG-{Toyopearl AF‑Amino‑650M resin}
notes: Peptide immobilised on chromatographic resin; also called W9
B10: KWWIWAG-Toyopearl resin (peptide)
peptide: KWWIWAG-{Toyopearl AF‑Amino‑650M resin}
notes: Peptide immobilised on chromatographic resin; also called W8
B11: KFNHWFG-Toyopearl resin (peptide)
peptide: KFNHWFG-{Toyopearl AF‑Amino‑650M resin}
notes: Peptide immobilised on chromatographic resin; also called W1; KFNHWF-Toyopearl

Legend:
AAV2 capsid [1] = biological target: T1, AAV2 capsid (adeno-associated virus serotype 2, UniProt P03135 1-735; P03135 1-598; P03135 1-533); experiment: bind-and-elute chromatography, pure AAV2, non-competitive mode, pH 7.0; AAV titer by ELISA
T1 construct: Whole assembled capsid, VP1:VP2:VP3 about 1:1:10; AF594-labelled in the library screen; GFP transgene in the lysate runs; a spherical cap of collated PDB structures in the docking; also called adeno-associated virus serotype 2

AAV2 capsid [2] = biological target: T1, AAV2 capsid; experiment: bind-and-elute chromatography, pure AAV2; bound at pH 7.0, eluted with 1 M MgCl2 pH 6.0; ELISA
AAV9 capsid = AAV9 capsid (adeno-associated virus serotype 9); experiment: bind-and-elute chromatography, pure AAV9; bound at pH 7.0, eluted with 1 M MgCl2 pH 6.0; ELISA
AAV2 capsid [3] = biological target: T1, AAV2 capsid; experiment: dynamic binding capacity at 10% breakthrough; AAV2 in HEK293 lysate, 3.2e11 vp/mL, PBS pH 7.4, residence time 3 min

| Binder | loss (AAV titer in flow-through and wash vs. load) (AAV2 capsid [1]) [%] | yield (AAV titer in elution fraction vs. load) (AAV2 capsid [2]) [%] | yield (AAV titer in elution fraction vs. load) (AAV9 capsid) [%] | DBC10% (vp AAV per mL of resin) (AAV2 capsid [3]) |
| --- | --- | --- | --- | --- |
| B1 | < 1.7 | 54.9 | 61.7 | 9.53e+12 vp AAV per mL of resin |
| B2 | < 1.7 | – | – | – |
| B3 | < 1.7 | – | – | 1.02e+13 vp AAV per mL of resin |
| B4 | < 1.7 | – | – | – |
| B5 | < 1.7 | – | 72.4 | 1.4e+13 vp AAV per mL of resin |
| B6 | < 1.7 | 44.8 | 53.7 | – |
| B7 | < 1.7 | – | 43.9 | 8.75e+12 vp AAV per mL of resin |
| B8 | < 1.7 | 79.8 | – | – |
| B9 | < 1.7 | – | – | – |
| B10 | < 1.7 | – | 57.2 | – |
| B11 | < 1.7 | 45 | – | 1.33e+13 vp AAV per mL of resin |
